Measured values from paper PMC3214623.

Experiments:
[1] = target: porcine beta-2 microglobulin (pig) (UniProt Q07717); test: radioligand binding
[2] = target: human beta-2 microglobulin (human) (UniProt P61769); test: radioligand binding
Chain of UniProt P61769 (P61769 21-119): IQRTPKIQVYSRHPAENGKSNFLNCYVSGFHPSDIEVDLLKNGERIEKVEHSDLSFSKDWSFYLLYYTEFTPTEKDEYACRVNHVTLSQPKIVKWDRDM

Chain of UniProt Q07717 (Q07717 21-118): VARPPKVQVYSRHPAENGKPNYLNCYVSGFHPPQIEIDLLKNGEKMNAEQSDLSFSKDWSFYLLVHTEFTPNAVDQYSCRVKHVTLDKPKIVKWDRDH

With “HLA-A*11:01 heavy chain, residues 1-275 (HHH) (domain or fragment)” the affinity (half-saturation of the heavy chain titration) [1] was 2.11 nM and the affinity (half-saturation of the heavy chain titration) [2] was 1.07 nM.
“chimeric MHC-I heavy chain HHP (HLA-A*11:01 α1α2, SLA-1*0401 α3) (domain or fragment)” gave an affinity (half-saturation of the heavy chain titration) [1] of 0.774 nM and an affinity (half-saturation of the heavy chain titration) [2] of 1.19 nM.
